Where two headings read alike, the source gives them in different places.
T1: 4H3056-AA
T1 chain: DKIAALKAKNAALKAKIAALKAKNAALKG

T2: 4H930-AA
T2 chain: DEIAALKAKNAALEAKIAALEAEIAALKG

T3: 4H1877-AA
T3 chain: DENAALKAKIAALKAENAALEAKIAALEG

T4: 4H3009-AA
T4 chain: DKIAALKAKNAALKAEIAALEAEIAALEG

T5: 4H2553-AA
T5 chain: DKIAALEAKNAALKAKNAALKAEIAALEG

T6: 4H3590-AA
T6 chain: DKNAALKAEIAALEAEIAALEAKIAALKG

T7: 4H1310-AA
T7 chain: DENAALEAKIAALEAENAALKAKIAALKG

T8: 4H1629-AA
T8 chain: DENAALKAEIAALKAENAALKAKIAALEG

T9: 4H32-AA
T9 chain: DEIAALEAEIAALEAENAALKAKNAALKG

T10: 4H1626-AA
T10 chain: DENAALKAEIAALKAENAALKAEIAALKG

T11: 4H2648-AA
T11 chain: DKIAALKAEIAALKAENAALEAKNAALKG

T12: 4H3410-AA
T12 chain: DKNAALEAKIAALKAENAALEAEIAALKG

T13: 4H1594-AA
T13 chain: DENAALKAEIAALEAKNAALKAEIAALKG

T14: 4H536-AA
T14 chain: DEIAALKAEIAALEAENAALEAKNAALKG

T15: 4H1401-AA
T15 chain: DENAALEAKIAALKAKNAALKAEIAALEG

T16: 4H2162-AA
T16 chain: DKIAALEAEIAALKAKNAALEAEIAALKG

T17: 4H710-AA
T17 chain: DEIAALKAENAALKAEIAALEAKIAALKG

T18: 4H340-AA
T18 chain: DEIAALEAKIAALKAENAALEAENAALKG

T19: 4H3016-AA
T19 chain: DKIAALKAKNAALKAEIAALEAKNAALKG


Key:
Assay in all cases: two-hybrid library CCmax;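 also: natural log of median RNA to DNA barcode read ratio; higher means stronger binding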
[1] = biological target: T1, 4H3056-AA; conditions: mean of both orientations
[2] = biological target: T2, 4H930-AA; conditions: mean of both orientations
[3] = biological target: T3, 4H1877-AA; conditions: mean of both orientations
[4] = biological target: T4, 4H3009-AA; conditions: mean of both orientations
[5] = biological target: T5, 4H2553-AA; conditions: mean of both orientations
[6] = biological target: T6, 4H3590-AA; conditions: mean of both orientations
[7] = biological target: T7, 4H1310-AA
[8] = biological target: T8, 4H1629-AA; conditions: mean of both orientations
[9] = biological target: T9, 4H32-AA; conditions: mean of both orientations
[10] = biological target: T10, 4H1626-AA; conditions: mean of both orientations
[11] = biological target: T11, 4H2648-AA; conditions: mean of both orientations
[12] = biological target: T12, 4H3410-AA; conditions: mean of both orientations
[13] = biological target: T13, 4H1594-AA; conditions: mean of both orientations
[14] = biological target: T14, 4H536-AA; conditions: mean of both orientations
[15] = biological target: T15, 4H1401-AA; conditions: mean of both orientations
[16] = biological target: T16, 4H2162-AA; conditions: mean of both orientations
[17] = biological target: T17, 4H710-AA; conditions: mean of both orientations
[18] = biological target: T18, 4H340-AA; conditions: mean of both orientations
[19] = biological target: T19, 4H3016-AA; conditions: mean of both orientations

Row | interaction score [1] | interaction score [2] | interaction score [3] | interaction score [4] | interaction score [5] | interaction score [6] | interaction score ([7]; mean of both orientations) | interaction score [8] | interaction score [9] | interaction score [10] | interaction score [11] | interaction score [12] | interaction score [13] | interaction score [14] | interaction score [15] | interaction score [16] | interaction score [17] | interaction score [18] | interaction score [19] | interaction score [7] | Binder
1 | -1.15 | -1.1 | 1.48 | -0.415 | -1.85 | 0.23 | -1.26 | -1.15 | -1.11 | -0.818 | -0.52 | 0.438 | 0.842 | -1.1 | 0.545 | 0.00334 | -1.52 | -1.35 | 0.156 | – | DENAALEAEIAALKAKNAALEAKIAALKG [4H1142-AA]
2 | -1.47 | -1.4 | 1.5 | 0.0502 | -1.34 | -0.24 | – | -0.348 | -1.07 | -0.373 | -1.18 | 1.9 | 1.18 | -1.27 | 1.11 | -0.945 | -0.684 | -1.45 | 0.425 | 1.62 | DENAALEAKIAALEAENAALKAKIAALKG [4H1310-AA]
